Measurements: US20110104163A1 (US Dept. of Health and Human Services, published 2011)

Experiments:
[1] = biological target: T1, single-chain fusion protein gp120Bal-CD4 (HIV-1 isolate Bal, UniProt P01730 26-208); experiment: ELISA, soluble VH on coated gp120-CD4
T1 construct: Gift from T. Fouts; Coated on ELISA plates; also called gp120-CD4; Bal gp120-CD4; not shown: junction or linker between gp120 and CD4 not described (gift, Fouts et al. 2000)

[2] = biological target: T1, single-chain fusion protein gp120Bal-CD4; experiment: ELISA, serially diluted m36 on coated antigen, anti-FLAG detection
soluble CD4 = biological target: T2, soluble CD4 (UniProt P01730 26-396, limits assumed); experiment: ELISA, plate coated with 1 µg/ml antigen, m36 detected with HRP anti-FLAG
T2 construct: also called sCD4

bovine serum albumin = biological target: T3, bovine serum albumin (bovine, UniProt P02769 25-607); experiment: as above
T3 construct: also called BSA
T3 sequence (P02769 25-607 limits assumed): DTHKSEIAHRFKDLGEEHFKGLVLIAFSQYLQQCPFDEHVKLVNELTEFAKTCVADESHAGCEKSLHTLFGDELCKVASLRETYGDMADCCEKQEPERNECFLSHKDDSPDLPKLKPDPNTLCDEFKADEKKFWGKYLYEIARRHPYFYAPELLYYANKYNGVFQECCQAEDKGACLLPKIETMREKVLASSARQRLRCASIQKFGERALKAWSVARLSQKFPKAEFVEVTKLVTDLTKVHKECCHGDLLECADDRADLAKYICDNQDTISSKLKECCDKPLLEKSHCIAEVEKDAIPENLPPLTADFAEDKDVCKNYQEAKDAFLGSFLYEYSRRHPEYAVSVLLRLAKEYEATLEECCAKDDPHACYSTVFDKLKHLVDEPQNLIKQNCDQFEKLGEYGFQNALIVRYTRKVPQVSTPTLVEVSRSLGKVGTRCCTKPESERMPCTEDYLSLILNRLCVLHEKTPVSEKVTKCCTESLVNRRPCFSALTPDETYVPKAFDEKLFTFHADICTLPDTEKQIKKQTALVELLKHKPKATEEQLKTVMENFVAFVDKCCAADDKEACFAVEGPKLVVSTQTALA

B1: m36 (VHH)
VHH: QVQLVQSGGGLVQPGGSLRLSCAASAFDFSDYEMSWVRQAPGKGLEWIGEINDSGNTIYNPSLKSRVTISRDNSKNTLYLQMNTLRAEDTAIYYCAIYGGNSGGEYWGQGTLVTVSS
notes: Human VH domain antibody, monomeric, made in E. coli with His and FLAG tags; also called b5; dAb m36
[1]
  EC50: 0.04 µg/mL
[2]
  EC50: ~2.5 nM
Soluble CD4
  binding result: no binding (tested: 10 µg/ml)
Bovine serum albumin
  binding result: no binding (tested: 10 µg/ml)
